Results on one substance are retold here after paper PMC9970984.

The experiment concerns the target RNA polymerase II (RNAP II), endogenous. Briefly: Co-IP (IP: myc, Western blot for RNA Pol II, band intensity printed below lanes). The settings on record: HCT116 cells transfected with myc-KAT8 WT or myc-KAT8 2KR plasmid; parent: 1.0. On the technique in general: In western blotting, separated proteins are transferred to a membrane and probed.

Take “myc-KAT8 (lysine acetyltransferase 8), wild type (from UniProt Q9H7Z6) K168R; K175R”: the ratio to parent turned out to be 3.5.
